We go through one protein from publication PMC8284890 (Science Advances, 2021).

This data set deals with the molecule itself. Briefly: cryo-EM particle classification.

B1: NTD-truncated human NPC1L1 in the cholesterol-enriched form (domain or fragment, UniProt Q9UHC9-2 265-1332, looked up)
chain: AIARPQALDSTFYLGQMPGSLVLIIILCSVFAVVTILLVGFRVAPARDKSKMVDPKKGTSLSDKLSFSTHTLLGQFFQGWGTWVASWPLTILVLSVIPVVALAAGLVFTELTTDPVELWSAPNSQARSEKAFHDQHFGPFFRTNQVILTAPNRSSYRYDSLLLGPKNFSGILDLDLLLELLELQERLRHLQVWSPEAQRNISLQDICYAPLNPDNTSLYDCCINSLLQYFQNNRTLLLLTANQTLMGQTSQVDWKDHFLYCANAPLTFKDGTALALSCMADYGAPVFPFLAIGGYKGKDYSEAEALIMTFSLNNYPAGDPRLAQAKLWEEAFLEEMRAFQRRMAGMFQVTFMAERSLEDEINRTTAEDLPIFATSYIVIFLYISLALGSYSSWSRVMVDSKATLGLGGVAVVLGAVMAAMGFFSYLGIRSSLVILQVVPFLVLSVGADNIFIFVLEYQRLPRRPGEPREVHIGRALGRVAPSMLLCSLSEAICFFLGALTPMPAVRTFALTSGLAVILDFLLQMSAFVALLSLDSKRQEASRLDVCCCVKPQELPPPGQGEGLLLGFFQKAYAPFLLHWITRGVVLLLFLALFGVSLYSMCHISVGLDQELALPKDSYLLDYFLFLNRYFEVGAPVYFVTTLGYNFSSEAGMNAICSSAGCNNFSFTQKIQYATEFPEQSYLAIPASSWVDDFIDWLTPSSCCRLYISGPNKDKFCPSTVNSLNCLKNCMSITMGSVRPSVEQFHKYLPWFLNDRPNIKCPKGGLAAYSTSVNLTSDGQVLTSRFMAYHKPLKNSQDYTEALRAARELAANITADLRKVPGTDPAFEVFPYTITNVFYEQYLTILPEGLFMLSLCLVPTFAVSCLLLGLDLRSGLLNLLSIVMILVDTVGFMALWGISYNAVSLINLVSAVGMSVEFVSHITRSFAISTKPTWLERAKEATISMGSAVFAGVAMTNLPGILVLGLAKAQLIQIFFFRLNLLITLLGLLHGLVFLPVILSYVGPDVNPALALEQKRAEEAVAAVMVASCPNHPSRVSTADNIYVNHSFEGSIKGAGAISNFLPNNGRQF
modifications: N-glycosylated (10 N-glycosylation sites seen in the density map)
As for B1, the binding result is on record as “binds”.
